Target: T1, AnkG ANK repeats (residues 38-855, R1-24) (UniProt O70511 38-855)
T1 construct: Ankyrin-G (AnkG), ANK repeats R1-24, residues 38-855; In human Q12955 the same residues seem to stand 8 lower (I277 here = I269 there); Cloned into a modified pET32a vector; the tag is said to be removed only for the crystallisation proteins; also called AnkG R1-24; Ankyrin-G ankyrin repeats; source: E. coli BL21 (DE3), purified (Ni-NTA, size-exclusion chromatography)
T1 sequence (looked up): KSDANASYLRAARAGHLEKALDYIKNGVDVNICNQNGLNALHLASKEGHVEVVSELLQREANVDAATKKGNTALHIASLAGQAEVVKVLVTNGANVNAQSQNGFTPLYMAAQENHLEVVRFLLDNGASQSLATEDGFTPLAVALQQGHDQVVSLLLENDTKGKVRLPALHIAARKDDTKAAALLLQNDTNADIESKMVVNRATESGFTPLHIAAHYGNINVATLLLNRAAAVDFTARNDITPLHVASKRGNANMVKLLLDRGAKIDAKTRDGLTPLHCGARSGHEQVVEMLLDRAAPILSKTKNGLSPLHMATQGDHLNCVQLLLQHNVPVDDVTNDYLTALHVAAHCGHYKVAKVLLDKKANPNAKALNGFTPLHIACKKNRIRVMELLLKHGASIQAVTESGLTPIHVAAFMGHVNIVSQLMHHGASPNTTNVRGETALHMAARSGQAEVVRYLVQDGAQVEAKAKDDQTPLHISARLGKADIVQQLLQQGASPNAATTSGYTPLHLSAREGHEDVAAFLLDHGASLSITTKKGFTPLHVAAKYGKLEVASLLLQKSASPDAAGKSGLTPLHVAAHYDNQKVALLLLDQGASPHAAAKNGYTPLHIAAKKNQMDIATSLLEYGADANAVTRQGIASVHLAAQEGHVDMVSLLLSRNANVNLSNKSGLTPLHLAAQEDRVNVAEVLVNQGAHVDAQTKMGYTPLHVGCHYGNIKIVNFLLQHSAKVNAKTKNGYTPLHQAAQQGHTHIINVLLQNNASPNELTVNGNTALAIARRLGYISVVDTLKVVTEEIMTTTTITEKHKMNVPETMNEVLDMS
Test: ITC; VP-ITC at 25 °C; 50 mM Tris, 100 mM NaCl, 1 mM EDTA, 1 mM DTT, pH 7.8; Nfasc proteins (200 μM) in the syringe, AnkG proteins (20 μM) in the cell; one-site binding model
Conditions: both partners purified

Kd: ~220 nM
B1: Nfasc ankyrin-binding domain (ABD, residues 1187-1214) (domain or fragment, UniProt P97685 1187-1214, looked up)
chain: SDDSLVDYGEGGEGQFNEDGSFIGQYTV
notes: also called Nfasc ABD; source: E. coli BL21 (DE3), purified (Ni-NTA, size-exclusion chromatography)

Source: article PMC9396398, “Crystal structure of Ankyrin-G in complex with a fragment of Neurofascin reveals binding mechanisms required for integrity of the axon initial segment” (The Journal of Biological Chemistry, 2022)
